Columns and labels:
[1] = target: putative Btnl2 receptor on activated CD4+ T cells; assay: cell-based or functional assay
[2] = target: putative Btnl2 receptor on activated CD4+ T cells; assay: flow cytometry, Fc-fusion staining of activated mouse CD4+ T cells at 72 hours

- cytokine production of activated CD4+ T cells after 72 hours of culture [1]: > 40%
- decrease in binding with CD28 co-stimulation (α-CD3/α-CD28 against α-CD3 alone) [2]: 50%
Substance: mouse Btnl2-Fc (from UniProt O70355 24-454) (Fc fusion)

Source: patent US20240327489A1
